Assay: soluble on expression in E. coli; label from the status in PepcDB or PDB records

| Sequence | soluble on expression in E. coli |
| --- | --- |
| AAAMKLAYWMYAGPAHIGTLRIASSFKNVHGIMHAPLGDDYFNVMRSMLERERDFTPVTASIVDRHVLARGSQEKVVDNIIRKDTEEHPDLIVLTPTCTSSILQEDLQNFVRRASLSTTADVLLADVNHYRVNELQAADRTLEQIVQFYIDKARRQGTLGTSKTPTPSVNIIGITTLGFHNQHDCRELKQLMADLGIQVNLVIPAAATVHDLQRLPQAWFNLVPYREIGGLTAQYLEREFGQPSVRITPMGVVETARCIRAIQGVLNAQGAGVNYEAFIEQQTREVSQAAWFSRSIDCQNLTGKKAVVFGDNTHAAAMTKILSREMGIHVVWAGTYCKYDADWFRAEVAGFCDEVLITDDHTVVGDAIARVEPAAIFGTQMERHVGKRLNIPCGVIAAPIHIQDFPVGYRPFLGYEGTNQLVDLIYNSFTLGMEDHLLEIFGGHDTKAVIHKGLSADSDLTWTAAGLAELNKIPGFVRGKVKRNTEKFAREQGISEITVEVLYAAKEAVGA | soluble |
| AAPFDVTAPQEPVLALVGSDAELTCGFSPNASSEYMELLWFRQTRSTAVLLYRDGQEQEGQQMTEYRGRATLATAGLLDGRATLLIRDVRVSDQGEYRCLFKDNDDFEEAAVYLKVAAVGSDPQISMTVQENGEMELECTSSGWYPEPQVQWRTGNREMLPSTSESKKHNEEGLFTVAVSMMIRDSSIKNMSCCIQNILLGQGKEVEISLPAPFVPRLTPW | not soluble |
| AATSRDALPNTEASGPTHSKEIPALTAVETGATNPLVPSDTVQTRHVVQHRSRSESSIESFFARGACVTIMTVDNPASTTNKDKLFAVWKITYKDTVQLRRKLEFFTYSRFDMELTFVVTANFTETNNGHALNQVYQIMYVPPGAPVPEKWDDYTWQTSSNPSIFYTYGTAPARISVPYVGISNAYSHFYDGFSKVPLKDQSAALGDSLYGAASLNDFGILAVRVVNDHNPTKVTSKIRVYLKPKHIRVWCPRPPRAVAYYGPGVDYKDGTLTPLSTKDLTTY | soluble |
| ADQPIDADVTVIGSGPGGYVAAIKAAQLGFKTVCIEKNETLGGTCLNVGCIPSKALLNNSHYYHMAHGTDFASRGIEMSEVRLNLDKMMEQKSTAVKALTGGIAHLFKQNKVVHVNGYGKITGKNQVTATKADGGTQVIDTKNILIATGSEVTPFPGITIDEDTIVSSTGALSLKKVPEKMVVIGAGVIGVELGSVWQRLGADVTAVEFLGHVGGVGIDMEISKNFQRILQKQGFKFKLNTKVTGATKKSDGKIDVSIEAASGGKAEVITCDVLLVCIGRRPFTKNLGLEELGIELDPRGRIPVNTRFQTKIPNIYAIGDVVAGPMLAHKAEDEGIICVEGMAGGAVHIDYNCVPSVIYTHPEVAWVGKSEEQLKEEGIEYKVGKFPFAANSRAKTNADTDGMVKILGQKSTDRVLGAHILGPGAGEMVNEAALALEYGASCEDIARVCHAHPTLSEAFREANLAASFGKSINF | soluble |
| AEESSKAVKYYTLEEIQKHNNSKSTWLILHYKVYDLTKFLEEHPGGEEVLREQAGGDATENFEDVGHSTDARELSKTFIIGELHPDDRSKITKPSESIITTIDS | soluble |
| AELLLGVNIDHIATLRNARGTAYPDPVQAAFIAEQAGADGITVHLREDRRHITDRDVRILRQTLDTRMNLEMAVTEEMLAIAVETKPHFCCLVPEKRQEVTTEGGLDVAGQRDKMRDACKRLADAGIQVSLFIDADEEQIKAAAEVGAPFIEIHTGCYADAKTDAEQAQELARIAKAATFAASLGLKVNAGHGLTYHNVKAIAAIPEMHELNIGHAIIGRAVMTGLKDAVAEMKRLMLEARG | soluble |
| AETIVMASTTSTEQSGLFGHLLPAFKKASGIDIKVVAQGTGQALDMARRGDADVLFVHDQVAEEKFVADGYAVKRYPVMYNDFILVGPAKDPAGVKGNDIVAALGKLAKDNADFISRGDKSGTHAAELRFWKQTGSDSKGSGYKECGCGMGPALNMGSSMNAYVLSDRGTWLSFKNPGELKILVEGDKRLFNQYGVMVVNPAKFPHVKAKAAQQFVDWVTSKAGQDAIASYQV | not soluble |
| AETVESCLAKSHTENSFTNVWKDDKTLDRYANYEGCLWNATGVVVCTGDETQCYGTWVPIGLAIPENEGGGSEGGGSEGGGSEGGGDDIFGELSSGKNAPKTGGGAKGNNASPAGSGNTKNNGASGADINNYAGQIKSAIESKFYDASSYAGKTCTLRIKLAPDGMLLDIKPEGGDPALCQAALAAAKLAKIPKPPSQAVYEVFKNAPLDFKPAAAHHHHHH | soluble |
| AEVYNKDGNKLDLYGKVDGLHYFSDDKSVDGDQTYMRLGFKGETQVTDQLTGYGQWEYQIQGNAPESENNSWTRVAFAGLKFQDIGSFDYGRNYGVVYDVTSWTDVLPEFGGDTYGSDNFMQQRGNGFATYRNTDFFGLVDGLNFAVQYQGQNGSVSGENDPDFTGHGITNNGRKALRQNGDGVGGSITYDYEGFGVGAAVSSSKRTWDQNNTGLIGTGDRAETYTGGLKYDANNIYLAAQYTQTYNATRVGSLGWANKAQNFEAVAQYQFDFGLRPSVAYLQSKGKNLGVVAGRNYDDEDILKYVDVGATYYFNKNMSTYVDYKINLLDDNQFTRAAGINTDDIVALGLVYQF | soluble |
| AGPGAEEEQLDTAEIAFQVKEQLLKHNIGQRVFGHYVLGLSQGSVSEILARPKPWRKLTVKGKEPFIKMKQFLSDEQNVLALRTIQVR | soluble |
| AHHHHHHGSAELWEIVSFLDEYLKISEYPDKSSNGLQVEGKEEVNTIAFAVDACLDTIVKARAFNADMLIVHHGLIWGGVKYVKGLFAKRVKELLKSNMNLYAAHLPLDAHPEVGNNAQLLKLLGLEPKEKFGEYHGVMIGYIGEFEEEKPLPLIAQMLAEKLPVDYVKSYEFGVQEIKRVGVVSGGGGFAVEEASEKGVDLFITGEFTHEDYRAAEDLRLSVIAAGHYATETLGVKALMPILREKFGVKTIFIDSPTGL | not soluble |
| AHHHHHHGSAGVRLVDVWKVFGEVTAVRELSLEVKDGEFMILLGPSGCGKTTTLRMIAGLEEPSRGQIYIGDRLVADPEKGIFVPPKDRDIAMVFQSYALYPHMTVYDNIAFPLKLRKVPRQEIDQRVREVAELLGLTELLNRKPRELSGGQRQRVALGRAIVRKPQVFLMDEPLSNLDAKLRVRMRAELKKLQRQLGVTTIYVTHDQVEAMTMGDRIAVMNGGVLQQVGSPDEVYDKPANTFVAGFIGSPPMNFLDAIVTEDGFVDFGEFRLKLLPDQFEVLGELGYVGREVIFGIRPEDLYDAMFARVRVPGENLVRAVVEIVENLGSERIVHLRVGGVTFVGAFRSESRVREGVEVDVVFDMKKIHIFDKTTGKAIF | soluble |
| AHHHHHHGSDCGKDYCVKDLSLAEEGWKKIDWVSRFMPVLQYIKREFEEKKPFKGVRIAATLHLEMKTAFLLLTLKAGGAEVSAAASNPLSTQDDVVAALAKAGVKVYAIRGESREQYYEFMHKALDIRPNIIIDDGADMISLVHKERQEMLDEIWGGSEETTTGVIRLRAMEKAGILKFPVIAVNDSYMKYLFDNRYGTGQSTWDGIMRATNLLIAGKNVVVVGYGWCGRGIAMRARGLGATVIVVEVDPIKALEARMDGFLVMDMKEAAKIGDIFVTATGNIKCIRREHFELMKDGAIMANAGHFDVEIWKPDLEKLAVEINNPRPNVTEYKLKDGRRLYLLADGRLVNLVAADGHPAEIMDMSFALQAKAAEYIKDNHERLEPKVYILPREIDEMVARIKLESMGIKIEELTEEQKKYLESWEHGT | soluble |
| AHHHHHHGSFPHEEKLIREKLGREPNDLEKAMLEVMWSEHVSYKSSRKWLKLLPTKNEHVILGPGEDAGIIKFDDKTWIVIGIESHNHPSAVEPYGGAATGVGGIVRDILCMGARPIALLDPIRFGPLEKEKNRYLFEYVVKGIADYGNRIGVPTVGGETEFDESLDNYTLVNVACIGIMRPEHLVHSYVTEPGLKLVIVGNRTGRDGIHGVTFASEELGENAEEEDRSAVQIPDPFTEKLLIEATLEAVYTGKVKALKDLGGGGLTCAASEMVGKRGFGAIIYADKVPLREPGMTPLEVMISESQERMLFAIKPEDVEELGKIFEKYELEWSVVGEVIEEPKFIVYWKGRKVAELPIELLTNVPTIEWPMKEYRIEEDVETPQISLEEAFEKVWRSPNVISKRWVWEQYDHEVQGRTVIKPGFDSAVLKINEEYGLAITADGNPTHCYLNPYHGAMGVVVEVVRNLVSVGAKPLALVDNLNFASPERPEVYWSFVETIKGLADAAKAFGLAYVSGNVSFYNEVVNKPVKPTPVVAGVGKVKLEKIPRGPREGDLIGLIGETRKELGGSELYRVLGVSKGIAPRVDLEVEKRNAESVLKLIEEGLVSFVHDVSRGGVAVALAELSTWFNVGIKSEITTSLLPLDFAFSESHGRYIVTFPEENLEAVKKIAPITLLGRIGGEKFELKINGEKVSKTVKWLSDVHWNELYRIMD | not soluble |
| AHHHHHHGSIEVRFHGRGGQGAVTAANILAEAAFLEGKYVQAFPFFGVERRGAPVTAFTRIDNKPIRIKTQIYEPDVVVVLDPSLLDAVDVTAGLKDEGIVIVNTEKSKEEVLEKLKKKPKKLAIVDATTIALEILGLPITNTAILGAVAKATGLVKIESIEEAIKDTFSGELGEKNARAAREAYEKTEVFEL | soluble |
| AHHHHHHGSIKLRDELGTATTDSAQKILLLGSGELGKEIAIEAQRLGVEVVAVDRYANAPAMQVAHRSYVGNMMDKDFLWSVVEREKPDAIIPEIEAINLDALFEFEKEGYFVVPNAKATWIAMHRERLRETLVKEAKVPTSRYMYATTLDELYEACEKIGYPCHTKAIMSSSGKGSYFVRGPEDIPKAWEEAKTKARGSAEKIIVEEHIDFDVEITELAVRHFDENGEIVTTFPKPVGHYQIDGDYHASWQPAEISEKAEREVYRIAKRITDVLGGLGLFGVEMFVKGDKVWANEVSPRPHDTGMVTLASHPPGFSEFGLHLRAVLGLPIPGEWVDGYRLFPMLIPAATHVIKAKVSGYSPRFRGLAKALSVPNATIRLFGKPEAYPGRRLGVVLAWDKDVQEAKKRAEMVAHMIELRTRSSDWHSQDYEKRKHLL | soluble |
| AHHHHHHGSKIKVGINGYGTIGKRVAYAVTKQDDMELIGVTKTKPDFEAYRAKELGIPVYAASEEFLPRFEKAGFEVEGTLNDLLEKVDIIVDATPGGMGEKNKQLYEKAGVKAIFQGGEKAEVAQVSFVAQANYEAALGKDYVRVVSCNTTGLVRTLNAIKDYVDYVYAVMIRRAADPNDIKRGPINAIKPSVTIPSHHGPDVQTVIPINIETSAFVVPTTIMHVHSIMVELKKPLTREDVIDIFENTTRVLLFEKEKGFESTAQLIEFARDLHREWNNLYEIAVWKESINVKGNRLFYIQAVHQESDVIPENIDAIRAMFEIAEKWESIKKTNKSLGILK | soluble |
| AHHHHHHGSKVVIVGNGPGGFELAKQLSQTYEVTVIDKEPVPYYSKPMLSHYIAGFIPRNRLFPYSLDWYRKRGIEIRLAEEAKLIDRGRKVVITEKGEVPYDTLVLATGARAREPQIKGKEYLLTLRTIFDADRIKESIENSGEAIIIGGGFIGLELAGNLAEAGYHVKLIHRGAMFLGLDEELSNMIKDMLEETGVKFFLNSELLEANEEGVLTNSGFIEGKVKICAIGIVPNVDLARRSGIHTGRGILIDDNFRTSAKDVYAIGDCAEYSGIIAGTAKAAMEQARVLADILKGEPRRYNFKFRSTVFKFGKLQIAIIGNTKGEGKWIEDNTKVFYENGKIIGAVVFNDIRKATKLEKEILDFYS | soluble |
| AHHHHHHGSPRLIKDRVPTPERSVGERVRDFGEVNLGYSWELALREAERCLQCPVEYAPCIKGCPVHINIPGFIKALRENRDNPSKAVREALRIIWRDNTLPAITGRVCPQEEQCEGACVVGKVGDPINIGKLERFVADYAREHGIDDELLLEEIKGIKRNGKKVAIIGAGPAGLTCAADLAKMGYEVTIYEALHQPGGVLIYGIPEFRLPKEIVKKELENLRRLGVKIETNVLVGKTITFEELREEYDAIFIGTGAGTPRIYPWPGVNLNGIYSANEFLTRINLMKAYKFPEYDTPIKVGKRVAVIGGGNTAMDAARSALRLGAEVWILYRRTRKEMTAREEEIKHAEEEGVKFMFLVTPKRFIGDENGNLKAIELEKMKLGEPDESGRRRPIPTGETFIMEFDTAIIAIGQTPNKTFLETVPGLKVDEWGRIVVDENLMTSIPGVFAGGDAIRGEATVILAMGDGRKAAKAIHQYLSKEK | soluble |

— the DeepSol protein solubility set
